In paper PMC3768570 (Brazilian Journal of Microbiology, 2009):

Assays:
[1] = target: T1, phytase from Aspergillus niger 11T53A9 (Aspergillus niger, UniProt P34752); test: biochemical
T1 sequence (P34752 24-467): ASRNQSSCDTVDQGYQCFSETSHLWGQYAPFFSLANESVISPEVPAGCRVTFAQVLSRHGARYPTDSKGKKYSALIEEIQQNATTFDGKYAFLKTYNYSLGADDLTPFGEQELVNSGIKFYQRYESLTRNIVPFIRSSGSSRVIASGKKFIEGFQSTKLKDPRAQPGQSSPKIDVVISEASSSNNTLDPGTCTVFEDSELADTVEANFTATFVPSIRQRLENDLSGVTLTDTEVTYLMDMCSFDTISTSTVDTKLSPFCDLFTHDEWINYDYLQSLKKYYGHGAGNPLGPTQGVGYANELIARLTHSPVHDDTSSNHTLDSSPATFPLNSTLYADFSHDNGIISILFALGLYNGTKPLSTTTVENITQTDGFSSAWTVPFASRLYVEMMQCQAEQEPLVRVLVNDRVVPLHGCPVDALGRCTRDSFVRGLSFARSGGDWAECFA

[2] = tested on: Saccharomyces cerevisiae phytase; test: phosphate release, ammonium molybdate, Lineweaver-Burk; type: biochemical; conditions: pH 5.0, 37°C, 100 mM sodium acetate; InsP3 prepared with S. cerevisiae phytase
purified protein [3] = substrate: Nc1ncnc2c1ncn2[C@@H]1O[C@H](COP(=O)(O)O)[C@@H](O)[C@H]1O; test: purified protein; conditions: pH 5.0, 37°C, 100 mM sodium acetate
purified protein [4] = substrate: Nc1ncnc2c1ncn2[C@@H]1O[C@H](COP(=O)(O)OP(=O)(O)O)[C@@H](O)[C@H]1O; test: purified protein; conditions: pH 5.0, 37°C, 100 mM sodium acetate
purified protein [5] = substrate: Nc1ncnc2c1ncn2[C@@H]1O[C@H](COP(=O)(O)OP(=O)(O)OP(=O)(O)O)[C@@H](O)[C@H]1O; test: purified protein; conditions: pH 5.0, 37°C, 100 mM sodium acetate
purified protein [6] = substrate: O=P(O)(O)OC(CO)CO; test: purified protein; conditions: pH 5.0, 37°C, 100 mM sodium acetate
purified protein [7] = substrate: O=P(O)(O)O[C@H]1O[C@H](CO)[C@@H](O)[C@H](O)[C@H]1O; test: purified protein; conditions: pH 5.0, 37°C, 100 mM sodium acetate
purified protein [8] = substrate: O=P(O)(O)O[C@H]1[C@H](OP(=O)(O)O)[C@@H](OP(=O)(O)O)[C@H](OP(=O)(O)O)[C@@H](OP(=O)(O)O)[C@H]1OP(=O)(O)O; test: purified protein; conditions: pH 5.0, 37°C, 100 mM sodium acetate
purified protein [9] = substrate: O=P(O)(O)Oc1ccc2ccccc2c1; test: purified protein; conditions: pH 5.0, 37°C, 100 mM sodium acetate
purified protein [10] = substrate: O=P(O)(O)Oc1cccc2ccccc12; test: purified protein; conditions: pH 5.0, 37°C, 100 mM sodium acetate
purified protein [11] = substrate: O=P(O)(O)Oc1ccccc1; test: purified protein; conditions: pH 5.0, 37°C, 100 mM sodium acetate
purified protein [12] = substrate: O=[N+]([O-])c1ccc(OP(=O)(O)O)cc1; test: purified protein; conditions: pH 5.0, 37°C, 100 mM sodium acetate

F [Fluoride]
Ki [1]: 158 µM

O=P(O)(O)O[C@@H]1[C@H](OP(=O)(O)O)[C@H](O)[C@@H](O)[C@H](O)[C@H]1OP(=O)(O)O [D-Ins(1,2,6)P3]
Km [2]: 293 ± 12 µM

B1: phytase from Aspergillus niger 11T53A9 (Aspergillus niger) (protein)
chain: T1 sequence (P34752 24-467)
Km (purified protein [3]): 497 ± 8.2 µM
kcat (purified protein [3]): 11 ± 1.1 s⁻¹
kcat/Km (purified protein [3]): 22100 M⁻¹ s⁻¹
Km (purified protein [4]): 534 ± 7.9 µM
kcat (purified protein [4]): 12 ± 0.9 s⁻¹
kcat/Km (purified protein [4]): 22500 M⁻¹ s⁻¹
Km (purified protein [5]): 587 ± 6.5 µM
kcat (purified protein [5]): 8 s⁻¹
kcat/Km (purified protein [5]): 13600 M⁻¹ s⁻¹
Km (purified protein [6]): 521 ± 9.1 µM
kcat (purified protein [6]): 9 ± 0.3 s⁻¹
kcat/Km (purified protein [6]): 17300 M⁻¹ s⁻¹
Km (purified protein [7]): 741 ± 6.4 µM
kcat (purified protein [7]): 6 ± 0.4 s⁻¹
kcat/Km (purified protein [7]): 8100 M⁻¹ s⁻¹
Km (purified protein [8]): 54 ± 1.4 µM
kcat (purified protein [8]): 190 ± 4.3 s⁻¹
kcat/Km (purified protein [8]): 3.52e+06 M⁻¹ s⁻¹
Km (purified protein [9]): 276 ± 7.1 µM
kcat (purified protein [9]): 22 s⁻¹
kcat/Km (purified protein [9]): 79700 M⁻¹ s⁻¹
Km (purified protein [10]): 247 ± 6.7 µM
kcat (purified protein [10]): 23 ± 1.5 s⁻¹
kcat/Km (purified protein [10]): 93100 M⁻¹ s⁻¹
Km (purified protein [11]): 177 ± 1.3 µM
kcat (purified protein [11]): 36 s⁻¹
kcat/Km (purified protein [11]): 203000 M⁻¹ s⁻¹
Km (purified protein [12]): 124 ± 3.9 µM
kcat (purified protein [12]): 35 ± 0.9 s⁻¹
kcat/Km (purified protein [12]): 282000 M⁻¹ s⁻¹
